Results from paper PMC5825165, “EAT1 transcription factor, a non-cell-autonomous regulator of pollen production, activates meiotic small RNA biogenesis in rice anther tapetum” (PLoS Genetics, 2018).

T1: UDT1-nYFP (UNDEVELOPED TAPETUM1 fused with the N-terminal split of YFP) (rice (japonica cv. Nipponbare), UniProt B9FXT3 1-234)
T1 sequence (looked up): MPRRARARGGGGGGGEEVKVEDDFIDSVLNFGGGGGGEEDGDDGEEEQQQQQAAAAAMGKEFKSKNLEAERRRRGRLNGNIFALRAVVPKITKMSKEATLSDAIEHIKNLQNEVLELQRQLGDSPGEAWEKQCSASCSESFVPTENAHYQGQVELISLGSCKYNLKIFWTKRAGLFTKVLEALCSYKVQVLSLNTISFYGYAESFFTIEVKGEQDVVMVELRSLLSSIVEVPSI


Target: T1, UDT1-nYFP (UNDEVELOPED TAPETUM1 fused …)
Experiment: cell-based or functional assay

Binder	transient expression assay in rice protoplasts: firefly Luciferase activity of the 24-PHAS chr5-20 promoter on EAT1-UDT1 cotransfection (untagged effectors), fold against the no effector control	transient expression assay in rice protoplasts: firefly Luciferase activity of the 24-PHAS chr6-97 promoter on EAT1-UDT1 cotransfection (untagged effectors), fold against the no effector control	transient expression assay in rice protoplasts: firefly Luciferase activity of the EAT1 promoter (pEAT1) on EAT1-UDT1 cotransfection (untagged effectors)	transient expression assay in rice protoplasts: firefly Luciferase activity of the 24-PHAS chr5-20 promoter on TIP2-UDT1 cotransfection (untagged effectors)	transient expression assay in rice protoplasts: firefly Luciferase activity of the 24-PHAS chr6-97 promoter on TIP2-UDT1 cotransfection (untagged effectors)	transient expression assay in rice protoplasts: firefly Luciferase activity of the DCL5 promoter (pDCL5) on TIP2-UDT1 cotransfection (untagged effectors)	transient expression assay in rice protoplasts: firefly Luciferase activity of the EAT1 promoter (pEAT1) on TIP2-UDT1 cotransfection (untagged effectors)
EAT1-cYFP (ETERNAL TAPETUM1 fused with the C-terminal split of YFP) (natural protein, rice (japonica cv. Nipponbare), UniProt Q7X8R0 1-464, looked up) MIVGAGYFEDSHDQSLMAGSLIHDSNQAPASSENTSIDLQKFKVHPYSTEALSNTANLAEAARAINHLQHQLEIDLEQEVPPVETANWDPAICTIPDHIINHQFSEDPQNILVEQQIQQYDSALYPNGVYTPAPDLLNLMQCTMAPAFPATTSVFGDTTLNGTNYLDLNGELTGVAAVPDSGSGLMFASDSALQLGYHGTQSHLIKDICHSLPQNYGLFPSEDERDVIIGVGSGDLFQEIDDRQFDSVLECRRGKGEFGKGKGKANFATERERREQLNVKFRTLRMLFPNPTKNDRASIVGDAIEYIDELNRTVKELKILVEQKRHGNNRRKVLKLDQEAAADGESSSMRPVRDDQDNQLHGAIRSSWVQRRSKECHVDVRIVDDEVNIKLTEKKKANSLLHAAKVLDEFQLELIHVVGGIIGDHHIFMFNTKVSEGSAVYACAVAKKLLQAVDVQHQALDIFN	4.46 fold	3.99 fold	7.61 fold				
TIP2-cYFP (TDR INTERACTING PROTEIN2 fused with the C-terminal split of YFP) (natural protein, rice (japonica cv. Nipponbare), UniProt Q5JNS0 1-379, looked up) MYHPQCELLMPLESLEMDVGQSHLAAAVAAAMPGELNFHLLHSLDAAAAAASSTAASASSQPTVDYFFGGADQQPPPPAAMQYDQLAAPHHHQTVAMLRDYYGGHYPPAAAAAAATEAYFRGGPRTAGSSSLVFGPADDESAFMVGPFESSPTPRSGGGRKRSRATAGFHGGGPANGVEKKEKQRRLRLTEKYNALMLLIPNRTKEDRATVISDAIEYIQELGRTVEELTLLVEKKRRRREMQGDVVDAATSSVVAGMDQAAESSEGEVMAAAAMGAVAPPPRQAPIRSTYIQRRSKETFVDVRIVEDDVNIKLTKRRRDGCLAAASRALDDLRLDLVHLSGGKIGDCHIYMFNTKIHSGSPVFASAVASRLIEVVDEY				8.63 fold	2.73 fold	4.91 fold	5.72 fold
